As a reminder, the Kd is the equilibrium constant for the complex coming apart. The low end stands for higher affinity, the high end for lower affinity. As a reminder, the stoichiometry N is a count of units in the complex or per binding partner.

Sequences and labels used below:
T1: Myo7a MF1.SH3 (Mus musculus, UniProt P97479)
T1 chain: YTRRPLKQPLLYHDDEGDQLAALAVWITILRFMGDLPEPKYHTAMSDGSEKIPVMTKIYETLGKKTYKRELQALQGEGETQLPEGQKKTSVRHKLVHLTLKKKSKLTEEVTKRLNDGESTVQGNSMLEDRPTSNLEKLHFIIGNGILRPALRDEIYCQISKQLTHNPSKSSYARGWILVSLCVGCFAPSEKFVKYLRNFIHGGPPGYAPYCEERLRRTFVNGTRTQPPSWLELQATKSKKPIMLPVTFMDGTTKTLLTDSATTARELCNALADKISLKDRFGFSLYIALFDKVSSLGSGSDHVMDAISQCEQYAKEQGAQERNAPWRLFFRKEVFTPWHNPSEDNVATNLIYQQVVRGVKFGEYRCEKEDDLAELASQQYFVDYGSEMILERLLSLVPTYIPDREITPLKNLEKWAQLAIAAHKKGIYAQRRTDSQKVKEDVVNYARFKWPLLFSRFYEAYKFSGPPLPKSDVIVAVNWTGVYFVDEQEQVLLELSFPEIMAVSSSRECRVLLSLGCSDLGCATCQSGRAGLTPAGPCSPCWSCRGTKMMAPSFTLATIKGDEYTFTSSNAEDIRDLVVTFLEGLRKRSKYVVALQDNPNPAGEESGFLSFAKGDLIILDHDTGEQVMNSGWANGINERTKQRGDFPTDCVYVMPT

T2: YFP-Full length (FL)-harmonin (harmonin-a1) (human, UniProt Q9Y6N9-1 1-552)
T2 construct: Harmonin-a1 (USH1C), human, residues 1-552 of UniProt Q9Y6N9-1; also called ^YFPFL (isoA); ^YFPFL; source: E. coli BL21 (DE3) Rosetta, purified (Glutathione Sepharose 4B, size-exclusion chromatography)
T2 sequence (looked up): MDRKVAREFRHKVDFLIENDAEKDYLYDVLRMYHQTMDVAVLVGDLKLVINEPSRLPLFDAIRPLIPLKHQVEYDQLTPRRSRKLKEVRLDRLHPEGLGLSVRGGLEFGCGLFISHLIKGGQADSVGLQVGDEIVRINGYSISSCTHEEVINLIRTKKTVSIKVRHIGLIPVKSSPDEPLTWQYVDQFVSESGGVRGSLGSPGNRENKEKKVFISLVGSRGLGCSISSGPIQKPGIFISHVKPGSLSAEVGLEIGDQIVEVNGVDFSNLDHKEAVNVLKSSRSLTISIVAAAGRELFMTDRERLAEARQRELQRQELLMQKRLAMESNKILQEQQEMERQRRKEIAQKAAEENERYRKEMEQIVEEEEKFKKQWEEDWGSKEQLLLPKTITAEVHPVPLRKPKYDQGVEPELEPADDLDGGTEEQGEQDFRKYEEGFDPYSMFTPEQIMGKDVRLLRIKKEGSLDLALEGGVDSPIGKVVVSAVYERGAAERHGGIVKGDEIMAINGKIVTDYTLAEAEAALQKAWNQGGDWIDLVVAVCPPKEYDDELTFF

T3: Myosin 7a MF1.SH3 (human, UniProt Q13402-1 991-1692, residues 1523-1560 were deleted from MF1)
T3 construct: Myosin 7a, human, N-terminal MyTH4-FERM domain and SH3, residues 991-1692 of UniProt Q13402-1; residues 1523-1560 deleted; Thrombin site of the vector replaced by an SSG linker; also called M7a MF1.SH3; Myo7a MF1.SH3; source: E. coli (BL21-AI, BL21 (DE3) Rosetta or BL21-Gold (DE3)), purified (Histrap, CaptoQ, gel filtration)
T3 sequence (looked up): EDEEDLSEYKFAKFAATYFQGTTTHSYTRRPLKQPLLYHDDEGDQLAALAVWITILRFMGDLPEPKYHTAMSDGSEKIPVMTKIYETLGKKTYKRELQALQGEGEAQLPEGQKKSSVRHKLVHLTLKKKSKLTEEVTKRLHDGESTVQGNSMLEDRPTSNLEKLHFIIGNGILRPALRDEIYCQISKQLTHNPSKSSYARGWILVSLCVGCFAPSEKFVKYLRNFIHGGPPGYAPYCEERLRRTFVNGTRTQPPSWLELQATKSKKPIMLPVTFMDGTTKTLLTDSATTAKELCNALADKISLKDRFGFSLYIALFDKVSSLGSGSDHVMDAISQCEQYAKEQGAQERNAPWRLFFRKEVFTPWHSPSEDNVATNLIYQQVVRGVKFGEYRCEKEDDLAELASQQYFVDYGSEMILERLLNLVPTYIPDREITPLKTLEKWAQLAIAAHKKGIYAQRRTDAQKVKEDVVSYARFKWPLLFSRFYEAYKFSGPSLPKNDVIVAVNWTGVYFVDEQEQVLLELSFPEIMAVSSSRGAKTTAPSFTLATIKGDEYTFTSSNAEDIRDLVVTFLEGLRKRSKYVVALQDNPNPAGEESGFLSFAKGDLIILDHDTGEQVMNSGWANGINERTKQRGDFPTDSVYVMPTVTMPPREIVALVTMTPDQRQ

T4: Myosin 7b MF1.SH3 (human, UniProt Q6PIF6 958-1586)
T4 construct: also called M7b MF1.SH3; Myo7b MF1.SH3; source: E. coli (BL21-AI, BL21 (DE3) Rosetta or BL21-Gold (DE3)), purified (Histrap, CaptoQ, gel filtration)
T4 sequence: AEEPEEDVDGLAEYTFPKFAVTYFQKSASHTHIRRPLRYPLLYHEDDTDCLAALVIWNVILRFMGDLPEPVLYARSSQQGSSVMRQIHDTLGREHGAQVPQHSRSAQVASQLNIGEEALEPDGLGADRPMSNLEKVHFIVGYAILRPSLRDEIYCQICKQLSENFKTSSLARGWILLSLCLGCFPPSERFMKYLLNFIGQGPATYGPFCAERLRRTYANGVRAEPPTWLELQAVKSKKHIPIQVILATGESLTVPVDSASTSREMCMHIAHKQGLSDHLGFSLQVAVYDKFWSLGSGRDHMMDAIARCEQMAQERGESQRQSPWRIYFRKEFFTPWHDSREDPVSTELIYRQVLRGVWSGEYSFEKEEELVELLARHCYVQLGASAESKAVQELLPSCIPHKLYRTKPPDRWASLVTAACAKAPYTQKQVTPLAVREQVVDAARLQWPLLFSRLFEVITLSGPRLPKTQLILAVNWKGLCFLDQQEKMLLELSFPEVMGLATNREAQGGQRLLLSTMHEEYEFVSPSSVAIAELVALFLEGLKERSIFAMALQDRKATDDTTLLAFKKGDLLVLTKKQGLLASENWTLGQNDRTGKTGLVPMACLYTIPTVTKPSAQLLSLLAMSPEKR

T5: YFP-Myosin 7b MF1.SH3 (human, UniProt Q6PIF6 958-1586)
T5 construct: Myosin 7b, human, MF1.SH3, residues 958-1586 of UniProt Q6PIF6; pET14-YFP vector; also called ^YFPM7b MF1.SH3; source: E. coli (BL21-AI, BL21 (DE3) Rosetta or BL21-Gold (DE3)), purified (Histrap, CaptoQ, gel filtration)
T5 sequence: T4 sequence

B1: ANKS4B CEN-PBM (protein)
chain: VEEDDDVQHESILNRPGLGSIVFSRNRVLDFEDISDSKRELGFKMPSELFQRQGAAGTVEEEEEEEEEEEEEKREANGTAGDLPWDEEEVEWEEDAVDATPLEVFLQSQHLEEFLPIFMREQIDLEALLLCSDEDLQNIHMQLGPRKKVLSAIDKRKQVLQQPGQLVDTSL
B2: Harmonin NPDZ1 (non-fluorescent, as used in MST and SEC-MALS) (domain or fragment, human, UniProt Q9Y6N9-1 1-197, looked up)
chain: MDRKVAREFRHKVDFLIENDAEKDYLYDVLRMYHQTMDVAVLVGDLKLVINEPSRLPLFDAIRPLIPLKHQVEYDQLTPRRSRKLKEVRLDRLHPEGLGLSVRGGLEFGCGLFISHLIKGGQADSVGLQVGDEIVRINGYSISSCTHEEVINLIRTKKTVSIKVRHIGLIPVKSSPDEPLTWQYVDQFVSESGGVRG
notes: Harmonin-a1 (USH1C), human, N-terminal domain and PDZ1, residues 1-197 of UniProt Q9Y6N9-1; source: E. coli BL21 (DE3) Rosetta, purified (Glutathione Sepharose 4B, size-exclusion chromatography)
B3: SANS_(CEN-PBM) (domain or fragment, UniProt Q495M9 300-461, looked up)
chain: DSGHDSLFTRPGLGTMVFRRNYLSSGLHGLGREDGGLDGVGAPRGRLQSSPSLDDDSLGSANSLQDRSCGEELPWDELDLGLDEDLEPETSPLETFLASLHMEDFAALLRQEKIDLEALMLCSDLDLRSISVPLGPRKKILGAVRRRRQAMERPPALEDTEL
notes: source: E. coli (BL21-AI, BL21 (DE3) Rosetta or BL21-Gold (DE3)), purified (Histrap, CaptoQ, gel filtration)
B4: ANKS4B_(CEN-PBM) with YFP-harmonin NPDZ1.PDZ2 (complex)
chain 1: SVHHESILNRPGLGSIVFRRNRISSPEDISDSKREFGFKLPSELLQRQGASEADEGAADEEGEENGLKDDLPWDDDEVEWEEDVVDATPLEVFLLSQHLEEFLPIFKREQIDLEALLLCSDEDLQSIQMQLGPRKKVLNAINRRKQVLQQPGQLVDTSL
chain 2: MDRKVAREFRHKVDFLIENDAEKDYLYDVLRMYHQTMDVAVLVGDLKLVINEPSRLPLFDAIRPLIPLKHQVEYDQLTPRRSRKLKEVRLDRLHPEGLGLSVRGGLEFGCGLFISHLIKGGQADSVGLQVGDEIVRINGYSISSCTHEEVINLIRTKKTVSIKVRHIGLIPVKSSPDEPLTWQYVDQFVSESGGVRGSLGSPGNRENKEKKVFISLVGSRGLGCSISSGPIQKPGIFISHVKPGSLSAEVGLEIGDQIVEVNGVDFSNLDHKEAVNVLKSSRSLTISIVAAAGRELFMTDR
notes: ANKS4B, human, residues 259-417 of UniProt Q8N8V4; as m43; Harmonin-a1 (USH1C), human, residues 1-301 of UniProt Q9Y6N9-1; as m31; also called ANKS4b+^YFPNPDZ1.PDZ2; ^YFPNPDZ1.PDZ2+ANKS4B_(CEN-PBM); source: purified E. coli proteins mixed
B5: YFP-SANS_(CEN-PBM) saturated with harmonin NPDZ1.PDZ2 (complex)
chain 1: B3 chain
chain 2: B4 chain 2
notes: SANS (USH1G), residues 300-461 of UniProt Q495M9; as m40; Harmonin-a1 (USH1C), human, residues 1-301 of UniProt Q9Y6N9-1; as m30; also called ^YFPSANS_(CEN-PBM)+NPDZ1.PDZ2; source: purified E. coli proteins mixed (saturating NPDZ1.PDZ2); not shown: YFP, N-terminal, kept
B6: ANKS4B_(CEN-PBM) (domain or fragment)
chain: B4 chain 1
notes: ANKS4B, human, residues 259-417 of UniProt Q8N8V4; source: E. coli (BL21-AI, BL21 (DE3) Rosetta or BL21-Gold (DE3)), purified (Histrap, CaptoQ, gel filtration)

One experiment addresses T1, Myo7a MF1.SH3.
In the experiment “SANS_(CEN-PBM)” the target is B3. Put plainly: SEC-MALS; Superdex 10/300 Increase; 20 mM Tris pH 7.0, 100 mM NaCl, 1 mM EGTA, 0.5 mM TCEP; samples at about 20 mg/ml. To be noted: both partners purified. (In general: Size exclusion chromatography separates by hydrodynamic size, large species first.)
Experiment [1] addresses T2, YFP-Full length (FL)-harmonin …. Briefly: MST; as a1 but 150 mM NaCl (for FL-Harmonin-a); YFP-fused partner constant at 100 nM, non-fluorescent protein titrated. To be noted: both partners purified.
Experiment [2] addresses T3, Myosin 7a MF1.SH3. Briefly: SEC-MALS; Superdex 10/300 Increase; 20 mM Tris pH 7.0, 100 mM NaCl, 1 mM EGTA, 0.5 mM TCEP; samples at about 20 mg/ml. To be noted: both partners purified.
The next experiment has as its target T4, Myosin 7b MF1.SH3. Put plainly: MST; YFP-fused partner held together with a third protein (saturating concentrations; competition experiments), non-fluorescent protein titrated. To be noted: both partners purified.
The target in experiment [3] is T3, Myosin 7a MF1.SH3. The description is as above. To be noted: both partners purified.
The next experiment deals with T5, YFP-Myosin 7b MF1.SH3. Put plainly: MST; YFP-fused partner constant at 100 nM, non-fluorescent protein titrated (16 two-fold dilutions); 20 mM Hepes pH 7.0, 100 mM NaCl, 1 mM EGTA, 0.5 mM TCEP, 0.05% Tween 20; Monolith NT.115. To be noted: both partners purified.

On to B1, for which the dissociation constant Kd with Myo7a MF1.SH3 is about 5 µM.
Take B2: the “stoichiometry N” value in the experiment with SANS_(CEN-PBM) is 1. The affinity in experiment [1], expressed as Kd, was 11.3 µM.
Consider B3, for which the “stoichiometry N” value with Myosin 7a MF1.SH3 [2] worked out at 1.
As for B4, in the experiment with Myosin 7b MF1.SH3, the Kd came out at 4 µM.
B5: binding with Myosin 7a MF1.SH3 [3] was characterised by a dissociation constant (Kd) of 0.386 µM.
B6 returned a Kd with YFP-Myosin 7b MF1.SH3 of 2.9 ± 0.03 µM.

These data come from PMC5493754, “Myosin 7 and its adaptors link cadherins to actin” (Nature Communications, 2017).
